Reference: PMC1890005 (The Journal of biological chemistry, 2006)

Molecular target: T1, σ^C4 domain of M. tuberculosis σ^C (M. tuberculosis)
T1 chain: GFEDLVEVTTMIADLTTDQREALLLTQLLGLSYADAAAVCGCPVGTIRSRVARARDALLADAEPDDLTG
Assay: SPR

B1: σ^C2 domain of M. tuberculosis σ^C (domain or fragment)
chain: MTATASDDEAVTALALSAAKGNGRALEAFIKATQQDVWRFVAYLSDVGSADDLTQETFLRAIGAIPRFSARSSARTWLLAIARHVVADHIRHVRSRPRTTRGARPEHLIDGD
  Kd: 1810 ± 30 nM
